Laboratory results published in IntAct's records for PubMed 18292230.

B1: E3 ubiquitin-protein ligase CHIP (Homo sapiens), Q9UNE7-1 (parent)
chain: MKGKEEKEGGARLGAGGGSPEKSPSAQELKEQGNRLFVGRKYPEAAACYGRAITRNPLVAVYYTNRALCYLKMQQHEQALADCRRALELDGQSVKAHFFLGQCQLEMESYDEAIANLQRAYSLAKEQRLNFGDDIPSALRIAKKKRWNSIEERRIHQESELHSYLSRLIAAERERELEECQRNHEGDEDDSHVRAQQACIEAKHDKYMADMDELFSQVDEKRKKRDIPDYLCGKISFELMREPCITPSGITYDRKDIEEHLQRVGHFDPVTRSPLTQEQLIPNLAMKEVIDAFISENGWVEDY

Variants of: B1
Conditions: with akt1_human AKT1, P31749
akt1_human AKT1, P31749, sequence (P31749 whole entry): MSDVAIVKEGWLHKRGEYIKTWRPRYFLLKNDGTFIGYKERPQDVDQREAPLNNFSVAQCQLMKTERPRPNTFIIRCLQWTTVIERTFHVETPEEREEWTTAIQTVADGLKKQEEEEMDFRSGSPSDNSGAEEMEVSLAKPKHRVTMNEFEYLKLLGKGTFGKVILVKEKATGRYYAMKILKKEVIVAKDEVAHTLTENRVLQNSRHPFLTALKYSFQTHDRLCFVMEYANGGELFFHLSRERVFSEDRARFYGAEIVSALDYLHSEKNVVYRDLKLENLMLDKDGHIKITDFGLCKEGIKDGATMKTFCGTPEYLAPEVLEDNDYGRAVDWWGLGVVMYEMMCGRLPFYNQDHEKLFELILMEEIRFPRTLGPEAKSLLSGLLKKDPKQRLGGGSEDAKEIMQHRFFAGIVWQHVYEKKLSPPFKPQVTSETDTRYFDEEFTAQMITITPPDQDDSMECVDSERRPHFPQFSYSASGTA

Row | Variant | effect of a mutation on the interaction
1 | K30A | disrupting interaction
